# B1: human TELO2 (as in the purified TTT complex) (natural protein, UniProt Q9Y4R8 1-837, looked up)
# chain: MEPAPSEVRLAVREAIHALSSSEDGGHIFCTLESLKRYLGEMEPPALPREKEEFASAHFSPVLRCLASRLSPAWLELLPHGRLEELWASFFLEGPADQAFLVLMETIEGAAGPSFRLMKMARLLARFLREGRLAVLMEAQCRQQTQPGFILLRETLLGKVVALPDHLGNRLQQENLAEFFPQNYFRLLGEEVVRVLQAVVDSLQGGLDSSVSFVSQVLGKACVHGRQQEILGVLVPRLAALTQGSYLHQRVCWRLVEQVPDRAMEAVLTGLVEAALGPEVLSRLLGNLVVKNKKAQFVMTQKLLFLQSRLTTPMLQSLLGHLAMDSQRRPLLLQVLKELLETWGSSSAIRHTPLPQQRHVSKAVLICLAQLGEPELRDSRDELLASMMAGVKCRLDSSLPPVRRLGMIVAEVVSARIHPEGPPLKFQYEEDELSLELLALASPQPAGDGASEAGTSLVPATAEPPAETPAEIVDGGVPQAQLAGSDSDLDSDDEFVPYDMSGDRELKSSKAPAYVRDCVEALTTSEDIERWEAALRALEGLVYRSPTATREVSVELAKVLLHLEEKTCVVGFAGLRQRALVAVTVTDPAPVADYLTSQFYALNYSLRQRMDILDVLTLAAQELSRPGCLGRTPQPGSPSPNTPCLPEAAVSQPGSAVASDWRVVVEERIRSKTQRLSKGGPRQGPAGSPSRFNSVAGHFFFPLLQRFDRPLVTFDLLGEDQLVLGRLAHTLGALMCLAVNTTVAVAMGKALLEFVWALRFHIDAYVRQGLLSAVSSVLLSLPAARLLEDLMDELLEARSWLADVAEKDPDEDCRTLALRALLLLQRLKNRLLPPASP
# notes: TELO2, human; Only the N-terminal domain (TELO2-N) is seen in the map; source: Sf9, purified within TTT; not shown: GST, N-terminal, cleaved
# B2: human TTI2 (as in the purified TTT complex) (natural protein, UniProt Q6NXR4 1-508, looked up)
# chain: MELDSALEAPSQEDSNLSEELSHSAFGQAFSKILHCLARPEARRGNVKDAVLKDLGDLIEATEFDRLFEGTGARLRGMPETLGQVAKALEKYAAPSKEEEGGGDGHSEAAEKAAQVGLLFLKLLGKVETAKNSLVGPAWQTGLHHLAGPVYIFAITHSLEQPWTTPRSREVAREVLTSLLQVTECGSVAGFLHGENEDEKGRLSVILGLLKPDLYKESWKNNPAIKHVFSWTLQQVTRPWLSQHLERVLPASLVISDDYQTENKILGVHCLHHIVLNVPAADLLQYNRAQVLYHAISNHLYTPEHHLIQAVLLCLLDLFPILEKTLHWKGDGARPTTHCDEVLRLILTHMEPEHRLLLRRTYARNLPAFVNRLGILTVRHLKRLERVIIGYLEVYDGPEEEARLKILETLKLLMQHTWPRVSCRLVVLLKALLKLICDVARDPNLTPESVKSALLQEATDCLILLDRCSQGRVKGLLAKIPQSCEDRKVVNYIRKVQQVSEGAPYNGT
# notes: TTI2, human, 508 residues; In PDB 7OLE TTI2 is modelled as poly-alanine helices only; source: Sf9, purified within TTT
# B3: human GST-TELO2 (natural protein, UniProt Q9Y4R8 1-837, looked up)
# chain: B1 chain
# notes: TELO2, human; The tagged subunit of m4, as the bait with which TTI1-TTI2 is found; also called GST-TEL2; not shown: GST, N-terminal, kept
# B4: S. cerevisiae Tah1p-Pih1p complex with a tandem strep-tag on the N terminus of Tah1p (complex)
# chain 1: MSQFEKQKEQGNSLFKQGLYREAVHCYDQLITAQPQNPVGYSNKAMALIKLGEYTQAIQMCQQGLRYTSTAEHVAIRSKLQYRLELAQGAVGSVQIPVVEVDELPEGYDRS
# chain 2: MADFLLRPIKQRHRNEDKYVSVDAADGSVSKIEPIADFVIKTKLLSANGPEKLQDGRKVFINVCHSPLVPKPEVDFNARIVFPLIIQNEWEIPIITSCYRMDHDKKGQECYVWDCCINSDCSRWICDDIQLREILVEWCLESCEIRDSVVLCRDRIAFPKMKKKGAELPALEVLNDELHQDYKAKMHKIIEEEAGDPMSILRGRNDDGDDNNDPDDGTLPPLFPIENKISGAKIEEIDKNEIAHRNLKQAPAPAPAPHEQQEDVPEYEVKMKRFKGAAYKLRILIENKAPNSKPDRFSPSYNFAENILYINGKLSIPLPRDIVVNAADIKIFHIRKERTLYIYI
# notes: Tah1p, Saccharomyces cerevisiae; Pih1p, Saccharomyces cerevisiae; also called yTP; TP; source: expressed and purified as previously described (Rivera-Calzada et al., 2017); not shown: tandem Strep, N-terminal, kept
# B5: S. cerevisiae Rvb1p-Rvb2p complex (complex)
# chain 1: MVAISEVKENPGVNSSNSGAVTRTAAHTHIKGLGLDESGVAKRVEGGFVGQIEAREACGVIVDLIKAKKMSGRAILLAGGPSTGKTALALAISQELGPKVPFCPLVGSELYSVEVKKTETLMENFRRAIGLRIKETKEVYEGEVTELTPEDAENPLGGYGKTISHVIVGLKSAKGTKTLRLDPTIYESIQREKVSIGDVIYIEANTGAVKRVGRSDAYATEFDLETEEYVPLPKGEVHKKKEIVQDVTLHDLDVANARPQGGQDVISMMGQLLKPKKTEITEKLRQEVNKVVAKYIDQGVAELIPGVLFIDEVNMLDIEIFTYLNKALESNIAPVVVLASNRGMTTVRGTEDVISPHGVPPDLIDRLLIVRTLPYDKDEIRTIIERRATVERLQVESSALDLLATMGTETSLRYALQLLAPCGILAQTSNRKEIVVNDVNEAKLLFLDAKRSTKILETSANYL
# chain 2: MSIQTSDPNETSDLKSLSLIAAHSHITGLGLDENLQPRPTSEGMVGQLQARRAAGVILKMVQNGTIAGRAVLVAGPPSTGKTALAMGVSQSLGKDVPFTAIAGSEIFSLELSKTEALTQAFRKSIGIKIKEETELIEGEVVEIQIDRSITGGHKQGKLTIKTTDMETIYELGNKMIDGLTKEKVLAGDVISIDKASGKITKLGRSFARSRDYDAMGADTRFVQCPEGELQKRKTVVHTVSLHEIDVINSRTQGFLALFTGDTGEIRSEVRDQINTKVAEWKEEGKAEIVPGVLFIDEVHMLDIECFSFINRALEDEFAPIVMMATNRGVSKTRGTNYKSPHGLPLDLLDRSIIITTKSYNEQEIKTILSIRAQEEEVELSSDALDLLTKTGVETSLRYSSNLISVAQQIAMKRKNNTVEVEDVKRAYLLFLDSARSVKYVQENESQYIDDQGNVQISIAKSADPDAMDTTE
# notes: Rvb1p, Saccharomyces cerevisiae; Rvb2p, Saccharomyces cerevisiae; also called yR2; R2; source: expressed and purified as previously described (Rivera-Calzada et al., 2017); copies: 3 + 3
# Legend:
# Settings in all cases: both partners purified
# [1] = target: T1, human TTI1, full length, untagged (human, UniProt O43156 1-1089); test: cryo-EM structure; human R2 saturated with an excess of TTT; symmetry expansion and multi-body refinement; ADP in all six sites
# T1 construct: TTI1, human, 1089 residues; In PDB 7OLE TTI1 is modelled as poly-alanine helices only; also called full-length untagged TTI1; source: Sf9, co-expressed with GST-TTI2 constructs (in lysate); co-expressed with TTI2 and TELO2 and purified within TTT
# [2] = target: T2, human TTI1-TTI2 subcomplex (human, UniProt O43156 1-1089; Q6NXR4 1-508); test: pull-down; GST beads hold the GST-tag on TELO2 (5 μM); 2 μM RUVBL1/2, RUVBL1/2ΔDII or isolated DII domains; 20 mM HEPES pH 7.85, 140 mM NaCl, 0.001% Tween 20; 45 min at 4°C; Coomassie-stained SDS-PAGE
# T2 construct: TTI1, human, 1089 residues; TTI2, human, 508 residues; Cloned as TTI1 and GST-TTI2; the methods name both a cleavage of the GST-tag and GST-TTI2-TTI1 as a sample of the pull-downs; also called T2; source: Sf9, co-expressed, purified
# [3] = target: B5; test: pull-down; strep beads hold the tandem strep-tag on Tah1p in yeast TP or R2TP; 20 mM HEPES pH 7.85, 140 mM NaCl, 0.5 mM TCEP, 0.03% CHAPS; 45 min at 4°C; Coomassie-stained SDS-PAGE
# [4] = target: T3, S. cerevisiae Tel2p-Tti1p-Tti2p complex (S. cerevisiae, UniProt P53038 1-688; P36097 1-1038; P47168 1-421); test: as above
# T3 construct: Tel2p, Saccharomyces cerevisiae; Tti1p, Saccharomyces cerevisiae; Tti2p, Saccharomyces cerevisiae; Purified from insect cells to ensure post-translational modifications on Tel2p; The methods say in general that the GST-tag was cleaved; also called yTTT; yeast TTT; source: Sf9, co-infected with Tti1p-Tti2p and Tel2p viruses, purified; copies: + +
# [5] = target: T4, S. cerevisiae TTT complex in which Tti1p carries a C-terminal FLAG-tag (S. cerevisiae, UniProt P53038 1-688; P36097 1-1038; P47168 1-421); test: co-IP; anti-FLAG beads hold yeast TTT by FLAG-tagged Tti1p; purified KmTOR-KmLst8, with or without yeast R2; Coomassie-stained SDS-PAGE
# T4 construct: Tel2p, Saccharomyces cerevisiae; Tti1p, Saccharomyces cerevisiae; Tti2p, Saccharomyces cerevisiae; The cloning of the FLAG-tagged Tti1p is not described in the methods; also called FLAG-tagged TTT; FLAG-tagged Tti1p; source: Sf9, purified; not shown: FLAG, C-terminal, kept; copies: + +
# T4 sequence (P53038 whole entry, chain 1 of 3): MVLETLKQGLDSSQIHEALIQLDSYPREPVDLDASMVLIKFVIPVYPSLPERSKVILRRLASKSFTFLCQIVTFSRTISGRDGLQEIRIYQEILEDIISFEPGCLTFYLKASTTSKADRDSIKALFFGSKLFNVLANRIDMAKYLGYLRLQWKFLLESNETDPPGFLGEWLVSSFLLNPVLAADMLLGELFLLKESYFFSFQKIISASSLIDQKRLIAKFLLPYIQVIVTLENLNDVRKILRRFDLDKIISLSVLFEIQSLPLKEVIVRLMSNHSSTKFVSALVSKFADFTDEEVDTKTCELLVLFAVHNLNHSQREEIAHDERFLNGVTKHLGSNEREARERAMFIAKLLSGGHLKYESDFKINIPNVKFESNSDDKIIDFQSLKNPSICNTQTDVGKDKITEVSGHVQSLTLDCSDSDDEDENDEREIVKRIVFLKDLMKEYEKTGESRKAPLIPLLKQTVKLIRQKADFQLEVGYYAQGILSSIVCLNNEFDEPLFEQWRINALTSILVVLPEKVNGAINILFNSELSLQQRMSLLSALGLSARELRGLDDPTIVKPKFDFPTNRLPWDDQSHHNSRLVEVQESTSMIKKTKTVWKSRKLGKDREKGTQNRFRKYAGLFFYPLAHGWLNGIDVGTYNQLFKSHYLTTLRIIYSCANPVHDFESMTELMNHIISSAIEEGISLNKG
# T4 sequence (P36097 whole entry, chain 2 of 3): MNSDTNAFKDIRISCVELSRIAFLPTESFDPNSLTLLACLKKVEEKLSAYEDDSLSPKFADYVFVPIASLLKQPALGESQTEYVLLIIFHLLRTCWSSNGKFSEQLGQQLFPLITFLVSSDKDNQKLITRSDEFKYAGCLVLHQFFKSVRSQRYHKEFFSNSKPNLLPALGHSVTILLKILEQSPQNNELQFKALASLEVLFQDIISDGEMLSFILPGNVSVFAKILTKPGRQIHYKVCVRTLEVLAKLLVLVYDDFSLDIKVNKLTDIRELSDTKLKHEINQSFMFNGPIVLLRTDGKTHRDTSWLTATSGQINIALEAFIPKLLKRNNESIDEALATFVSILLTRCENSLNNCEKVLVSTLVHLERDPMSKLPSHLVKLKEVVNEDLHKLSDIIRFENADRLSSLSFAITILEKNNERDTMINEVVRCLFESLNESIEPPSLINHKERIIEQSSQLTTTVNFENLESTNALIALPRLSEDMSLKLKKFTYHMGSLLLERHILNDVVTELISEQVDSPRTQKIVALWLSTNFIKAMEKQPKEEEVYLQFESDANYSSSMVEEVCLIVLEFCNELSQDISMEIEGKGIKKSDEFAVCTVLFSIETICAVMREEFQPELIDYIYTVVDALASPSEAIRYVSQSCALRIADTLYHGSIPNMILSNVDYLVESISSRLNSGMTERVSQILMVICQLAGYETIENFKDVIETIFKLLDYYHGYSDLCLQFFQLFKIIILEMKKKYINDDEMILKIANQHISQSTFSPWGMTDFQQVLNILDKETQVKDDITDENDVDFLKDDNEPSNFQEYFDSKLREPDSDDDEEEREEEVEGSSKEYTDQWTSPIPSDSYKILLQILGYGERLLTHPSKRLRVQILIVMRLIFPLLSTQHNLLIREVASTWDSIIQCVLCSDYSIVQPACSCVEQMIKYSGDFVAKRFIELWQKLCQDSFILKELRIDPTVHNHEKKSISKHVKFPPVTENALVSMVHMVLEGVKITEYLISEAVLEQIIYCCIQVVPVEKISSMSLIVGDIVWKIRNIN
# T4 sequence (P47168 whole entry, chain 3 of 3): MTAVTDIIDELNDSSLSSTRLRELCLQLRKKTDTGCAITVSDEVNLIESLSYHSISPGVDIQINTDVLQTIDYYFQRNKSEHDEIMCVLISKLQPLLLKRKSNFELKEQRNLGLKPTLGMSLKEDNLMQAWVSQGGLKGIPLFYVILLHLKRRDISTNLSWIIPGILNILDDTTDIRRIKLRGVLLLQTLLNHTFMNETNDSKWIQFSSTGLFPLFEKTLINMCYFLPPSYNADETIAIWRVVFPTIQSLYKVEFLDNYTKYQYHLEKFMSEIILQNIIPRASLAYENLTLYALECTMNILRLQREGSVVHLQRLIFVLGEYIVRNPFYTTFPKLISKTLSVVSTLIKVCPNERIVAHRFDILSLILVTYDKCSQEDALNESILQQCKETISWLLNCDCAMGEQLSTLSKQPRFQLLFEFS
# T1 sequence (O43156 whole entry): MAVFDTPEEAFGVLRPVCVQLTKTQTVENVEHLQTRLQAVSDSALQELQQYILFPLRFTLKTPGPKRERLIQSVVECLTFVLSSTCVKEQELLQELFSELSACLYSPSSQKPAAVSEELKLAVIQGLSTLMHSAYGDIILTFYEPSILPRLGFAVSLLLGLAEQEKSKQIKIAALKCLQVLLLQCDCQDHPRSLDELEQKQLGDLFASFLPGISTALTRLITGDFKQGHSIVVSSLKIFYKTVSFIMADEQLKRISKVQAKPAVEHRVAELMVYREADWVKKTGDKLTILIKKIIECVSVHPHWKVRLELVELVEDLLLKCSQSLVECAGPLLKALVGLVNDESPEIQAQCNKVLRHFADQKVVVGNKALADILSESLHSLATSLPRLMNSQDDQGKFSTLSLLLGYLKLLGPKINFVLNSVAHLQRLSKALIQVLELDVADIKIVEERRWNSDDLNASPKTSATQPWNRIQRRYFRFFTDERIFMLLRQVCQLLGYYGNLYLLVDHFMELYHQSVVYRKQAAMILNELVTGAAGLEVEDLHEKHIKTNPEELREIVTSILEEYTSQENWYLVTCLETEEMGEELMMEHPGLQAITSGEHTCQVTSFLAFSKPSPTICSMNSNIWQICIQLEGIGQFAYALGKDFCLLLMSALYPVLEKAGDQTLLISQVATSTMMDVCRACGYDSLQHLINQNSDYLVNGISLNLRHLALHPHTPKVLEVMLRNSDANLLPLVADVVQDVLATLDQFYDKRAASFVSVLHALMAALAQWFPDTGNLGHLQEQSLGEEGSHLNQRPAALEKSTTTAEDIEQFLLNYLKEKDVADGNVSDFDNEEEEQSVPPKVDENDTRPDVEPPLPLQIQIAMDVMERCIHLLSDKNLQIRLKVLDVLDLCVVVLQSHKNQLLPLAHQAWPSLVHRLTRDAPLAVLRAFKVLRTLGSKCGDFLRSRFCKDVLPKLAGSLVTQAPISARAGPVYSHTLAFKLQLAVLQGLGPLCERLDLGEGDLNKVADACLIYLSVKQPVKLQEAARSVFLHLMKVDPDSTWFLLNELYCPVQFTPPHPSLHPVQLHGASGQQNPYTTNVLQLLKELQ
# T2 sequence (O43156 whole entry, the tested form may be a part, one chain of several): as the sequence (O43156 whole entry) above
# T3 sequence (P53038 whole entry, chain 1 of 3): as the sequence (P53038 whole entry, chain 1 of 3) above
# T3 sequence (P36097 whole entry, chain 2 of 3): as the sequence (P36097 whole entry, chain 2 of 3) above
# T3 sequence (P47168 whole entry, chain 3 of 3): as the sequence (P47168 whole entry, chain 3 of 3) above
binder,measurement,setting,value
B1,binding result,[1],binds
B2,binding result,[1],binds
B3,binding result,[2],binds
B4,binding result,[3],binds
same,binding result,[4],binds
B5,binding result,[5],binds
